We go through one molecule from patent US20200055919A1 (ACCELERON PHARMA, published 2020).

Substitutions are numbered along the chain they refer to. Numbers in names are those of the source.

The target of one experiment is T1, GDF3 (UniProt Q9NR23 251-364).
T1 sequence (looked up): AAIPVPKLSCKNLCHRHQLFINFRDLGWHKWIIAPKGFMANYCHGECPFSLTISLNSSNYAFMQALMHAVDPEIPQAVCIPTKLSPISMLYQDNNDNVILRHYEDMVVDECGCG
In words: SPR (Biacore), Fc fusion captured by anti-Fc antibody, ligand injected, 37 C. As for the experimental part: (§1) A Biacore™-based binding assay was used to compare the ligand binding kinetics of an ActRIIB-Fc:ActRIIB(L79E)-Fc heterodimer with those of unmodified ActRIIB-Fc homodimer. Fusion proteins were captured onto the system using an anti-Fc antibody. Ligands were then injected and allowed to flow over the captured receptor protein at 37° C. Results are summarized in the table below, in which ligand off-rates (kd) most indicative of effective ligand traps are denoted in bold.

A further experiment has as its target T2, BMP6 (UniProt P22004 382-513, limits assumed).
T2 sequence (looked up): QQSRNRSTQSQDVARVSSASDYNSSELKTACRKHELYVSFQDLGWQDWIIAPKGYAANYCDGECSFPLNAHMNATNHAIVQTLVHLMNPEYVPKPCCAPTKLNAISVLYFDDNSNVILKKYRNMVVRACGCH
Described as above. As for the experimental part:
as §1

In a further experiment the target is T3, GDF11 (UniProt O95390 299-407).
T3 construct: also called BMP11
T3 sequence (looked up): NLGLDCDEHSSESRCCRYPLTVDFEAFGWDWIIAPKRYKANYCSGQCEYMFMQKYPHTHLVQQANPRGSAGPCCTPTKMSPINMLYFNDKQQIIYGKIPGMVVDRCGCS
The experiment is described as above. As for the experimental part:
as §1

Another experiment has as its target T4, activin B (UniProt P09529 293-407).
T4 sequence (looked up): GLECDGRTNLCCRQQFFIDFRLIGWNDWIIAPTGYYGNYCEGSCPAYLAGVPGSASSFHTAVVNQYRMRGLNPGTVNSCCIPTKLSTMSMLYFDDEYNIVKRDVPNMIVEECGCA
Described as above. As for the experimental part:
as §1

Experiment [1] addresses T5, BMP10 (UniProt O95393 317-424).
T5 sequence (looked up): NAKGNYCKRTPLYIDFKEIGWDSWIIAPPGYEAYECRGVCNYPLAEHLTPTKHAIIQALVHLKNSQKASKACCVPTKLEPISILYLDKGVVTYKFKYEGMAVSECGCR
Described as above. The procedure:
as §1

Another experiment deals with T6, BMP9 (UniProt Q9UK05 320-429).
T6 sequence (looked up): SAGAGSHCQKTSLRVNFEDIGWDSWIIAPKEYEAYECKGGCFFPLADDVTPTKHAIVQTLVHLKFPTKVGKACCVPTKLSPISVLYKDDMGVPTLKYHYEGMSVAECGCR
Described as above. As for the experimental part:
as §1

The target in a further experiment is T7, GDF8 (UniProt O14793 267-375).
T7 construct: also called myostatin
T7 sequence (looked up): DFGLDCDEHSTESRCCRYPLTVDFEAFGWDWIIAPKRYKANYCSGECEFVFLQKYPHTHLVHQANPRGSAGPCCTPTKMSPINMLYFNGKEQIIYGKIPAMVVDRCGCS
The description is as above. As for the experimental part:
as §1

The target of experiment [2] is T8, activin A (UniProt P08476 311-426).
T8 sequence (looked up): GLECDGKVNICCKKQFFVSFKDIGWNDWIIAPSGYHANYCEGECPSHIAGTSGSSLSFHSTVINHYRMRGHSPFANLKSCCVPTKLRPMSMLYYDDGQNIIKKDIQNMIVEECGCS
Described as above. As for the experimental part: as §1

The target of experiment [3] is T5, BMP10. Nature of the experiment: SPR (Biacore), 37 C. As for the experimental part:
as §1
A general note: SPR reads the build-up and loss of mass on a sensor chip optically.

Experiment [4] addresses T8, activin A. Nature of the experiment: SPR (Biacore), 37 C. As for the experimental part:
as §1

B1: ActRIIB-Fc:ActRIIB(L79E)-Fc heterodimer (Fc fusion)
chain 1: GRGEAETRECIYYNANWELERTNQSGLERCEGEQDKRLHCYASWRNSSGTIELVKKGCWEDDFNCYDRQECVATEENPQVYFCCCEGNFCNERFTHLPEAGGPEVTYEPPPTAPT
chain 2: B1 chain 1 with E60L
notes: also called ActRIIB-Fc:ActRIIB(L79E)-Fc heteromer; not shown: linker and engineered G1Fc; linker and complementary engineered G1Fc
As for B1, the Kd – broadly, the free concentration of one partner at which half of the binding sites on the other are occupied at equilibrium, for simple one-to-one binding – with GDF3 was 10 nM; with BMP6, 0.056 nM; with GDF11, 0.009 nM; in the experiment with activin B, 0.025 nM; in the experiment with BMP10 [1], 0.042 nM; in the experiment with BMP9 it was more than 2.8 nM. For the same molecule, the results for the Kd in the experiment with GDF8 and with activin A [2] were 0.15 nM and 0.17 nM, respectively. For the same molecule, the koff (in general, the rate constant with which the complex falls apart) with GDF3 is 0.0059 s⁻¹; with BMP6 it was 0.018 s⁻¹; in the experiment with GDF11 it was 0.00036 s⁻¹; with activin B it was 0.00021 s⁻¹; with BMP10 [1] it was 0.002 s⁻¹; in the experiment with GDF8, 0.0005 s⁻¹. Further, in the experiment with activin A [2], the koff was determined as 0.0015 s⁻¹. The on-rate (kon) (commonly a measure of how fast the partners come together) with GDF3 amounted to 580000 M⁻¹ s⁻¹; in the experiment with BMP6, 3.3e+08 M⁻¹ s⁻¹; with GDF11 it was 4e+07 M⁻¹ s⁻¹; with activin B it was 8.3e+06 M⁻¹ s⁻¹; with BMP10 [1], 4.8e+07 M⁻¹ s⁻¹; in the experiment with GDF8, 3.4e+06 M⁻¹ s⁻¹. The molecule also had an on-rate (kon) with activin A [2] of 8.8e+06 M⁻¹ s⁻¹. For the same molecule, the “fold faster off-rate compared to ActRIIB-Fc homodimer” value with BMP10 [3] and in the experiment with activin A [4] was approximately 10 fold throughout.
